Results: patent US20170355757A1 (Regeneron, published 2017)

Key:
Human C5 [1] = target: T1, Human C5 (human, UniProt P01031 19-1676); assay: SPR, mAb captured by anti-hFc, 37C
T1 construct: The natural protein has a beta and an alpha chain; also called complement factor 5; complement component 5
Protocol: (§1) Equilibrium dissociation constants (KD values) for C5 binding to purified anti-C5 antibodies were determined using a real-time surface plasmon resonance biosensor assay on a Biacore T200 instrument. The Biacore sensor surface was derivatized by amine coupling with a monoclonal mouse anti-human Fc antibody (GE Healthcare, # BR-1008-39) to capture anti-C5 antibodies expressed with human Fc constant regions. Biacore binding studies were conducted in HBST running buffer (0.01M HEPES pH 7.4, 0.15M NaCl, 3 mM EDTA, 0.05% v/v Surfactant P20).
(§2) Human C5 was obtained from a commercial source (EMD). Other C5 reagents were expressed with a C-terminal myc-myc-hexahistidine tag (subsequently referred to as C5-mmh). […] Association of all the C5 reagents to each of the captured monoclonal antibodies was monitored for 3 minutes and their dissociation in HBST running buffer was monitored for 8 minutes. All the binding kinetics experiments were performed at either 25° C. or 37° C. Kinetic association (kₐ) and dissociation (kd) rate constants were determined by fitting the real-time sensorgrams to a 1:1 binding model using Scrubber 2.0c curve fitting software. Binding dissociation equilibrium constants (KD) and dissociative half-lives (t %) were calculated from the kinetic rate constants as: KD (M)=kd/kₐ and t_{1/2} (min)=In2/(60×kd)

Human C5 [2] = target: T1, Human C5; assay: SPR, mAb captured by anti-hFc, 25C
Protocol: as §1, §2

monkey C5-mmh = target: T2, monkey C5-mmh (monkey, UniProt P01031 19-1676 (human entry), limits assumed); assay: SPR, mAb captured by anti-hFc, 25C
T2 construct: Expressed with a C-terminal myc-myc-hexahistidine tag
T2 chain: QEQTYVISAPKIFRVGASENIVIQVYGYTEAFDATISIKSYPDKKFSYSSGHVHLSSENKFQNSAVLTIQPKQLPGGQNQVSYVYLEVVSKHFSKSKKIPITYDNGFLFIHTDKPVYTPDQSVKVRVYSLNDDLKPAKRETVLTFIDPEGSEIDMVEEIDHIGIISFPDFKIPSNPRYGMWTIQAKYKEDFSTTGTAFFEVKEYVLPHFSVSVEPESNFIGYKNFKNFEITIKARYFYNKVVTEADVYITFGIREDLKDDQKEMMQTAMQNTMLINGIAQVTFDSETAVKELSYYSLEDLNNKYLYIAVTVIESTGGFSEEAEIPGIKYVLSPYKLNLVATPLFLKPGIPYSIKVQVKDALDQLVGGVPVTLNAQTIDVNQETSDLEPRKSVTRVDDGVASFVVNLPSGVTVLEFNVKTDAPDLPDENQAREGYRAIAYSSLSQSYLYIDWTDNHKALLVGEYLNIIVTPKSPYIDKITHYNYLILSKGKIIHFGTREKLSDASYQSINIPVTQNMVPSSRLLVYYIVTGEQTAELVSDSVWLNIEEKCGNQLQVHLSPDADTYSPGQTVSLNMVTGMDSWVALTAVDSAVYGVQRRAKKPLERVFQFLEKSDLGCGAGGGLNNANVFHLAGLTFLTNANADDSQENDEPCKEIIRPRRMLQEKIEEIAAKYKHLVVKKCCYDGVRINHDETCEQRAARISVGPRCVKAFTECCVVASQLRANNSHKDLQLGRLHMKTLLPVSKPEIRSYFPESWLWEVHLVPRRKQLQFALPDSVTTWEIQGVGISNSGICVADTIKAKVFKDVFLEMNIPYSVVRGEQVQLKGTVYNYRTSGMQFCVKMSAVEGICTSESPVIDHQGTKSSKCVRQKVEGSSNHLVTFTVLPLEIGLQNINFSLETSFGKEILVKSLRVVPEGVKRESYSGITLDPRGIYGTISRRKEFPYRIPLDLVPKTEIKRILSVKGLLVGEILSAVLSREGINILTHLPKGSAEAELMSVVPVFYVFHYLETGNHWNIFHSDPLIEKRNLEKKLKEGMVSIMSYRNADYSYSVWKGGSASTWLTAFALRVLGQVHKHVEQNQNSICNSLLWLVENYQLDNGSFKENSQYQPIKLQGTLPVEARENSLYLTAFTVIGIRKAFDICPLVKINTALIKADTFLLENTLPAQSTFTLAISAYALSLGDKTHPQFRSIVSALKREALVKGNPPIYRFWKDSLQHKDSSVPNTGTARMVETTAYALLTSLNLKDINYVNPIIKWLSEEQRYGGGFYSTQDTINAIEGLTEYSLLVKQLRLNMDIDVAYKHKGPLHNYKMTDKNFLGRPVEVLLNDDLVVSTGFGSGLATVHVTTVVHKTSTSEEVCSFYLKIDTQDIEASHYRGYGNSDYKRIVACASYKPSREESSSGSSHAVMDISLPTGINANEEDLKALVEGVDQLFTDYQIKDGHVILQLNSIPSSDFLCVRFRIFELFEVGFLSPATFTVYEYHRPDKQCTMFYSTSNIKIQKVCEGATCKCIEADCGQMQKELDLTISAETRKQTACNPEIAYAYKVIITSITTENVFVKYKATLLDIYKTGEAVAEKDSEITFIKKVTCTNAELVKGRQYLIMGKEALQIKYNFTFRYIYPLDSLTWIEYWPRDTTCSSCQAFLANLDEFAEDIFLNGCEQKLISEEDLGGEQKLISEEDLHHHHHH
Protocol: as §1, §2

B1: H4H12176P2 (antibody, human IgG4, V domains shown)
VH: EVQLVESGGGLVQPGGSLRLSCAASGFHSNRYWMDWVRQAPGKGLEWVANIKQDGSEENYVDSVKGRFTISRDNAKNSLYLQMNSLRAEDTAVYYCARDRSTSWVPYWFFDLWGRGTLVTVSS
VL: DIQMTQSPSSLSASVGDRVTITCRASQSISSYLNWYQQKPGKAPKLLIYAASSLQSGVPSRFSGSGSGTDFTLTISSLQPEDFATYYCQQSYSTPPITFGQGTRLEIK
- 100 nM Human C5 Bound (RU) (Human C5 [1]): 71 RU
- Kd (Human C5 [1]): 1590 pM
- koff (Human C5 [1]): 0.000234 s⁻¹
- kon (Human C5 [1]): 147000 M⁻¹ s⁻¹
- t½ (Human C5 [1]): 49 min
- 100 nM Human C5 Bound (RU) (Human C5 [2]): 96 RU
- Kd (Human C5 [2]): 201 pM
- koff (Human C5 [2]): 6.75e-05 s⁻¹
- kon (Human C5 [2]): 336000 M⁻¹ s⁻¹
- t½ (Human C5 [2]): 171 min
- 100 nM monkey C5-mmh Bound (RU) (monkey C5-mmh): 69 RU
- Kd (monkey C5-mmh): 322 pM
- koff (monkey C5-mmh): 5.88e-05 s⁻¹
- kon (monkey C5-mmh): 182000 M⁻¹ s⁻¹
- t1/2 (monkey C5-mmh): 196 min

B2: H4H12163P (antibody, human IgG4, V domains shown)
VH: EVQLVESGGDLVQPGGSLRLSCAASGFTFSSYAMNWVRQGPGKGLEWVSAISGRGDSTYYADSVKGRLTISRDNSKNTLYLQMNSLRAEDTAVYYCVKEGEQLVYWYFDLWGRGTLVTVSS
VL: DIQMTQSPSSLSASVGDRVTITCRASQTISNFLHWYQQKPGKAPKLLIYAASSLQSGVPSRFSGSGSGTDFTLTISSLQPEDFSTYFCQQSYTTPLTFGGGTKVEIK
- 100 nM Human C5 Bound (RU) (Human C5 [1]): 139 RU
- Kd (Human C5 [1]): 729 pM
- koff (Human C5 [1]): 0.000665 s⁻¹
- kon (Human C5 [1]): 911000 M⁻¹ s⁻¹
- t½ (Human C5 [1]): 17 min
- 100 nM Human C5 Bound (RU) (Human C5 [2]): 108 RU
- Kd (Human C5 [2]): 324 pM
- koff (Human C5 [2]): 0.000208 s⁻¹
- kon (Human C5 [2]): 643000 M⁻¹ s⁻¹
- t½ (Human C5 [2]): 55 min
- 100 nM monkey C5-mmh Bound (RU) (monkey C5-mmh): 98 RU
- Kd (monkey C5-mmh): 2490 pM
- koff (monkey C5-mmh): 0.000775 s⁻¹
- kon (monkey C5-mmh): 311000 M⁻¹ s⁻¹
- t1/2 (monkey C5-mmh): 15 min

B3: H4H12167P (antibody, human IgG4, V domains shown)
VH: QVQLVESGGGLVKPGGSLRLSCAASGFTFSDSYMSWIRQAPGKGLEWISYIGSSGNTFYYADSVKGRFTISRDNANNLLYLQMTSLRAEDTAVYYCAREEGDFWSAVDSWGQGTLVTVSS
VL: DIQLTQSPSFLSASVGDRVTITCWASQGISSYLAWYQQKPGKAPKLLIHTASTLQSGVPSRFSGSGSGTEFTLTISNLQPEDFATYYCQQLNSYPFTFGPGTKVDIK
- 100 nM Human C5 Bound (RU) (Human C5 [1]): 153 RU
- Kd (Human C5 [1]): 295 pM
- koff (Human C5 [1]): 0.000381 s⁻¹
- kon (Human C5 [1]): 1.29e+06 M⁻¹ s⁻¹
- t½ (Human C5 [1]): 30 min
- 100 nM Human C5 Bound (RU) (Human C5 [2]): 116 RU
- Kd (Human C5 [2]): 121 pM
- koff (Human C5 [2]): 0.000131 s⁻¹
- kon (Human C5 [2]): 1.09e+06 M⁻¹ s⁻¹
- t½ (Human C5 [2]): 88 min
- 100 nM monkey C5-mmh Bound (RU) (monkey C5-mmh): 111 RU
- Kd (monkey C5-mmh): 315 pM
- koff (monkey C5-mmh): 0.000132 s⁻¹
- kon (monkey C5-mmh): 419000 M⁻¹ s⁻¹
- t1/2 (monkey C5-mmh): 88 min

B4: H4H12175P (antibody, human IgG4, V domains shown)
VH: EVQLVESGGGVVQPGGSLRLSCAASGFTFNDYAMHWVRQAPGKGLEWVSLISGDGGNTYYADSVKGRLTISRDNSKNSLYLQMNSLRTEDTALYYCAKDKGWNFGYFDLWGRGTLVTVSS
VL: DIQMTQSPSSLSTSVGDRVTITCRASQNIDTYLNWYQQKPGKAPKLLIYDASSLQSGVPSRFSGSGSGTDFTLTITSLQPEDFATYYCQQNDNILHPLTFGGGTKVEIK
- 100 nM Human C5 Bound (RU) (Human C5 [1]): 132 RU
- Kd (Human C5 [1]): 2150 pM
- koff (Human C5 [1]): 0.000637 s⁻¹
- kon (Human C5 [1]): 296000 M⁻¹ s⁻¹
- t½ (Human C5 [1]): 18 min
- 100 nM Human C5 Bound (RU) (Human C5 [2]): 100 RU
- Kd (Human C5 [2]): 910 pM
- koff (Human C5 [2]): 0.000196 s⁻¹
- kon (Human C5 [2]): 216000 M⁻¹ s⁻¹
- t½ (Human C5 [2]): 59 min
- 100 nM monkey C5-mmh Bound (RU) (monkey C5-mmh): 59 RU
- Kd (monkey C5-mmh): 25700 pM
- koff (monkey C5-mmh): 0.00165 s⁻¹
- kon (monkey C5-mmh): 64200 M⁻¹ s⁻¹
- t1/2 (monkey C5-mmh): 7 min

B5: H4H12159P (antibody, human IgG4, V domains shown)
VH: QVQLVESGGGVVQPGRSLRLSCGASGFTFSTYGMHWVRQAPGKGLEWVAVIWDDGNNKYYADSVKGRFTISRDNSKNTLYLQMNSLRAEDTAVYYCARDSEVAPVGDYWGQGTLVTVSS
VL: DIQMTQSPSTLSASVGDRVTIICRASQSINRWLAWYQQKPGKAPKLLIYKASSLESGVPSRFSGSGSGTEFTLTISSLQPDDFAAYYCQQYNDYSYTFGQGTKLEIK
- 100 nM Human C5 Bound (RU) (Human C5 [1]): 145 RU
- Kd (Human C5 [1]): 103 pM
- koff (Human C5 [1]): 0.000107 s⁻¹
- kon (Human C5 [1]): 1.04e+06 M⁻¹ s⁻¹
- t½ (Human C5 [1]): 108 min
- 100 nM Human C5 Bound (RU) (Human C5 [2]): 118 RU
- Kd (Human C5 [2]): 73.1 pM
- koff (Human C5 [2]): 7.13e-05 s⁻¹
- kon (Human C5 [2]): 975000 M⁻¹ s⁻¹
- t½ (Human C5 [2]): 162 min
- 100 nM monkey C5-mmh Bound (RU) (monkey C5-mmh): 116 RU
- Kd (monkey C5-mmh): 133 pM
- koff (monkey C5-mmh): 4.69e-05 s⁻¹
- kon (monkey C5-mmh): 354000 M⁻¹ s⁻¹
- t1/2 (monkey C5-mmh): 246 min
